Measurements from the DeepSol protein solubility set.

Experiment: soluble on expression in E. coli; label from the status in PepcDB or PDB records

| Sequence | soluble on expression in E. coli |
| --- | --- |
| MSLDDSVFVGHLKDVTGATGFVGKLYGEGVNDALVWINAHGGIDGTRLDFESVDYAYEVPRAIALYKKWTSQNKMVALQGWGTGDTEALISFVAKDKIPVLSGSYSGHLTDPTGKNPKTQKPAPYNFFYGPSYSDACRALVQWAEGDWKAKGKEGKPKFIHAGDNHPYPNAPKEACADFATELGFEVLPPVVVSLKPGDFKAQCLTIKQSGANYVYVANLGPSVVSLVKSCKTVGTDAQYMANIWGGDSETQKTLGADGDGYVFVAANAFWGDDAPGLALVREIAGSETPRTHHYIRGVCSTFYMKEAMEWAKAHGGLTGESIRNAMYARKDWVPKGLEGVCIPSTWTPEDHRGMTKVFIYQMQNGSEIHKIAETDLPRRDDWLGYEGHHHHHH | not soluble |
| MSLDDYTVRVRVPGGEWKDLFEYNVQVDMDRVQDASMVQFDMGSLVEVMVKKNNGTIHEVDIRPQVNDIRYVQYKNVITFMLDKPRYLSVEFNGDRLHNLHVFANPMETETYSKEEKGVMYFGPGVHRPKDLPNNQIRIPSNTTVYLAPGAVVKAKLWVDKAENVRIVGRGILDHPIRGIEITDSKNVVVDGITVINPDHYTVFGGGSVGVTIRNLKSFSCKGWSDGIDMMCCHDVLIDNVFMRNSDDCIALYNHRWNWWGGSDNITVQNSILWADIAHPINVGGHGDPESLIGETIENLIFRNIDILEHDEDDVPYQGCMAIDAGDRNRVKNILFEDIRVESIQEGKLFHINIRFNPKYDKQPGQSIDGVTFRNITYNGVGENPSLIKGLDKERMVRNITFENVVVNGEKIKDLKGFITNEYIEGIKIKEGHHHHHH | not soluble |
| MSLDEIKSGKYKHGDKLPTEKELMERFNASRETVRKALERLVVKNLVIRKPGLGTFVNIEKKNKVVGILVQQITSYIFPYIALGAEEVLFANGYKMLLGNASEDPHKERQIINEWLEVGVDGLIIDPVYSATKRSNRDLIEDMAKKGTKVVLVHTNWDIEGVGSVVLDDWYGGEKAAEIFYQYGHRNVAVLYKTIHLPSVVRAQAFLKRGRELGFEKVHEKSFHVSEFTGIVMQSAFELLSLPKDQRPTAVFCYNDATALQFFLAAKRMGLKIPEDVSVIGFDDAPIGDFREILTTFEHPKEEVGKKAVEILLKMIDGEKPEKYVFKPKLIMRESVTYPKEGHHHHHH | soluble |
| MSLDEIVGIGFKRADAIARNMGVHPHSKYRIHSGIKYMLNTFQGEGHTYAPGVKLIQRAEELLRVEEGQVEGAIQELALNQEIQLERIDDEIIVYSMPYYYAESNVCKKLISLAQVELDPIEMDIDEELQKIEQAEEMTLAKQQKEAIKEAIENGISVITGGPGTGKTTTINSLIKVFEKLELKMLLAAPTGRASKRMTEATGKESKTIHRLLELGFGDDREGMLFQRNEDNPLDCHVIIIDEVSMVDIILMNSLMKSIARGTRVVLVGDVDQLPSVGAGNVLRDIIDSKVVKTIRLTEIFRQAQESMIVVNAHRINQGLYPQLNEKQKDFYFMKRNAKEDVLATVVELVRDRLPKHYQFDALRDIQVLTPMKKGETGTLNLNKELQAALNPPNVSKAEKDLKEKIFREGDKVMQIKNNYTLKWRCLDPMAEEQKGEGVFNGDIGYVQSIDTEAEELVILFDDQKQVNYSFTQLDELELAYSVTIHKSQGSEFPVVVIPITWGPPMLLTRNLLYTAVTRARSLVVLVGVESYLKKMVDNNKIIERYSGLGRRLGKYFEEGHHHHHH | not soluble |
| MSLDENIVKTGSNEMELVDFRIFKQGHDKVYEGIYGVNVSKVREIIKIPSLTELPGVPDYIEGIFDLRGVVIPVVNLAKWMQITEPESTMLKPRVIITEFSNILIGFIVHEAKRIRRINWKDIEPATFSTGSGALDKGKITGVTRIENDEVLLILDLESVVEDLGIYAPKTDIDFGKIEKFTGTALILDDSMTARKRVKEMMQQMGFQVVEAKDGVEGINKLEELSQIYGESLNDTLKIIVSDVEMPQMDGFHFAARIKEDPRFKDIPIVFNSSLSNEFMNEKGVQEAGGEGYLVKFNASDFFNEIAKVIKKHQSQEGHHHHHH | soluble |
| MSLDFATEYVYPAFSELTGTDKIVAFGDHSHKCPIYVPQTPPCTAECPAGEDIRAINRFLNGTDPSDDPLKSAWETATDTNPFPAVMGRICPHPCQSKCNRGVHDESVAINAVEQVLGNYGIEHNLKLKGPGADTGKRVAIIGGGPAGLSAAYQLRRKGHAVTIYDANEKLGGMVLYGIMGYRVDRKVLEAEIGRIIELGVETKMGVTIGKDITLEQLEAEYDAVFIAVGAQKGRALPVPGFEGTPGATNAIDFLKSYEVLGDDIPVGKHVVVIGDGNVSMDVARLALRLGSQATIISGVPREEMACFENEFDDAKNEGTTMHFLTGTVEVLGGASGVTGLRCTKMVKKEKGEEGWNSPIPFLRYKSNGESFEIEADMVVAAIGQATDLSGLGSAASGPWLKVDRNFRIPGREKLFGGGDALKVDLITTAVGHGRKAAYAIDAFLKGEPMPEEPYREITKPHKQDLLYFLHTPQAKRTSIKPEVVVGNHDELLEALTPEQAVTESKRCMSCGFCFDCKQCVSFCPQEAITRFRDNPAGEKVYTNYAKCVGCHLCSLVCPCGYIQMGMGDGEGHHHHHH | not soluble |
| MSLDGTVLVADDDRTIRTVLTQALTRAGCKVHATSSLTTLMRWVAEGKGDVVISDVVMPDGNGLEMLPKIAQDRPGLPVIVISAQNTIMTAIQAAEAEAYDYLPKPFDLPDLMKRTARALEQKRRTVSSEPREEGAERPDELPLVGRTPAMQALYRLVAKVMNTDLPVMISGESGTGKSLIARTIHDFSDRRTLPFISVTASDLMDLEGPARVLARVKGGTLLIDEIADIGDELQGRIVRMMDAPGDYVPRFMATSQGDPARAMEAGKLRRDLYYRLCGAPIHVPALRERVDDIPLLTEYFLAKAERDGAPKRWLGAGAAELFRIYSWPGNVRQLENAVRRLSLISRAEEISRTEVEQVLGNQPELEPALGGRGDSEKLSASVARHLQRYFDLHGNVLPPPGLYQRILREVEAPLIEIALEASGGNQAKCADLLGINRNTLRKKITDLDIEVTREGHHHHHH | soluble |
| MSLDKWEMERTDITMKHKLGGGQFGEVYEGVWKKYSLTVAVKTLKEDTMEVEEFLKEAAVMKEIKHPNLVQLLGVCTREPPFYIITEFMTYGNLLDYLRECNRQEVSAVVLLYMATQISSAMEYLEKKNFIHRDLAARNCLVGENHLVKVADFGLSRLMTGDTYTAHAGAKFPIKWTAPESLAYNKFSIKSDVWAFGVLLWEIATYGMSPYPGIDPSQVYELLEKDYRMERPEGCPEKVYELMRACWQWNPSDRPSFAEIHQAFETMFQESSISDEVEKELGKRGEGHHHHHH | soluble |
| MSLDLKITNGFYDPSHLSYEVVERKGLGHPDTLADGIAEQIEIDYSLYCLDKFGVIPHHNFDKIIIRGGHSVQDFGGSDFIEPIKIIFLGRASKKCFNSSIPLFKIQKKAATKYLNRILPNLDVENYVEFETLTSDFTTKTNWFSPEAIEDLPEYLDVPKANDTATMISYWPLTISEELALMIEGYFYKLDKNELPTPRFTKMGGDIKVMVVRNDLEYSIRINFPLISKFFNNDIESQLYVDKHVEKIKKYIEQKYKNISFSIDYHYYLTTTGSCIDFGEEGAVGRGNKTHGIISSFRPNTMEAPAGKNCTYFVGKVWGFLSDTIAKEIYEAFNTPCQIIMQLNIGSKLYRPTHLFIQTEESVDQERVLEIVNRHLNNGKQNTNLILSTQHFIPKTNVYDGEGHHHHHH | soluble |
| MSLDLNQIKAVVFDLEGTLLDRVKSREKFIEEQYERFHDYLIHVQLADFKKAFIELDDDEDNDKPDLYKEIIKRFHVDRLTWKDLFNDFEMHFYRYVFPYYDTLYTLEKLSQKGFQIGVIANGKSKIKQFRLHSLGLMHVINYLSTSETVGFRKPHPKIFEDMIDQLGVLPEQIMYVGDDALNDVAPARAMGMVSVWYKQEDAEIEPLEEEVDFTITTVEELLTILPIKNDNKGENYGSIYEGHHHHHH | soluble |
| MSLDLPAHARVVIVGGGVMGVGLAYHLAHEGWGGDTVLLEKAELTSGSTWHAAGQITHSTSSFGLGKCVDYNIGLYSGKLEAETGQAVTWHGCGSFRLAYTEDEMDWLRHTLSVGRSLGFNIELVGPKRIAELHPFYNLDGVLGALHTPDDGHVDPTNVTMAMAAGARAKGVRIFRHTCATNITQGANGEWVVETGKGTITCEHVVNAGGTYARQMGEWSGLQLPMTSMTHHYFVTEPVPEFQSLDRELPVIRDDRKVSGYIRMEQKRGLIGIYEKANPNAVWIDECPWDYENWLFDADYDRVMPWLEESLNRMPIFADLGIQREVHGAISHPPDGNPLIGPAPGVRNYWCCCGTQIGIGWGPGLSRELARWIVHGAADISMRDFDPRRFGAYATKDWQVIKAREDYCLRHEIPFPHFNRLAGRPVKPSPLYDRLKEKGAVYEEVYGHERPRWFARGIEQRDHYGFGRTPVHDMVATECAAVRSAAGIMDISAFTRVEVSGPDAGALLDRLTANRLPQKPGGIALTHMLNRRGRIELETTVVKLDEDRFYLVCAAFFEQRLLDHLAAHRGTADITVRNLSTDWAALALNGPHARDILAACTEADLSNARFKWLTAQQITVAGHSLWALRMSYAGELGWELHIPRDHALAVYDALWAAGQRYGLTDYGSFAMNALRMEKAFKGAGELTNEVTLAEADVLRFARTDKDYLGRDKTLNAGNLPWVCAYLEIAPDGRFDGNGGEAVLLDGKVVGSTASVAYGHTVGKILAFAYVKPQVNVPGTEVEVIIAGNPRKGRILGAPAYDPDSTKPRADAEGHHHHHH | soluble |
| MSLDLQLYLSNLANQIDRETGIGDVPLVILLDDLSEAGSISELVNGALTCKYHKPYIIGTTNQPVKMTPNHGLHLSFRRMLTFSNNVEPANGFLVRYLRRKLVESDSDINANKEELLRVLDWVPKLWYHLHTFLEKHSTSDFLIGGPCFFLSCPIGIEDFRTWFIDLWNNSIIPYLQEGAKDGIKVHGQKAAWEDPVEWVRDTLPWPSAQQDDSTPSSLDSDPLMAMLLKLQEAANYIESPDRETILDPNLQATLEGHHHHHH | soluble |
| MSLDNDIFKLNVYIKNIDTSKSNLRYTEGYLQSLTNILTRAKEIAIQGASGTYESDDKKMISKEVNALLEDVVAIANAKGPDGYSIFSGTKIDSEAFKVTRENKISKTSKDGAGPQIIKVEYNGNQAEKKTEVYNDIHMSNNYPGNVIFFLQNQNIISSINTNGFAVKENTKIYIDNIEIGLTAGDTALDIVAKINESSAPVEASIDPVLNSLSIKTTTPHQIWITEEKESNVLQTLGILTKNNDTKLPPYNLSSSTEVRSRSIFDALIELRDTLYNNKEELVGSRSLAEIDESLKRLLISVADLGAKENRLDRSYERISKEAADMKEDMIQYTDLDVTKAITNLNMASLAYQVSIGISAKIMQTTLLDFIKEGHHHHHH | not soluble |
| MSLDNQPLIVIYDEGAALPKDIVTELNGVAPLVLVINSNEHTRERISYFSRFGHVVDGSDIARAVSELAHLNPAGIVTFSERALRLTATLAKHLNLPFHNLETVYRLTDKYKQRVALQEAGIESIRFYLINTVSDWEQAVEQVCLPAVLKPAYGGGSIDTYLIEDPQTGKSLVEKLLSNKQVGFDGGRSLVLEEFLQGRPSLPFGDYVSVESLVVNGEIKHINVTGKMPLSPPFREYGHIWPSVLSDSEQNQIYALTSSAINVLGVNRGITHTELKLTEQGPRIIEVNGRVGGGINEMAKISLNISLLEMAARLALGKMIDEGHHHHHH | not soluble |
| MSLDQAIRRNPNVPVVVRGWLHKQDSSGMRLWKRRWFVLADYCLFYYKDSREEAVLGSIPLPSYVISPVAPEDRISRKYSFKAVHTGMRALIYNSSTAGSQAEQSGMRTYYFSADTQEDMNAWVRAMNQAAQVLSRSSLKRDMEKVERQAVPQANHTEGHHHHHH | soluble |
| MSLDRGVQWVLMGAPGAWRHVFAERLSKLLEVPHISMGSLVRQELNPRSSLYKEIASAVNERKLVPKSVVFALLSKRLEEGYARGETGFILHGIPRTRFQAETLDQIAQIDLVVNLKCSEDHLVNRNETALPQQEFLGSMLHSPVAINARRESVGVYAQEVEEYYRKQRKLLDFHVGGATSADTWQGLLAALHLKQVNLTTSQKLTEGHHHHHH | not soluble |
